In patent US20230121197A1, “ANTIBODIES SPECIFICALLY BINDING THE CARBOXYMETHYLATED CATALYTIC SUBUNIT OF PROTEIN PHOSPHATASE 2A” (Medizinische Universität Wien, priority 2020, published 2023):

B1: 7C10-C5: α-carboxymethylation specific mouse monoclonal IgG1 antibody from single clone hybridoma 7C10-C5 (DSM ACC3350) (antibody)
heavy: MYRMQLLSCIALSLALVTNSDVQLQESGPGLVKPSQSLSLTCSVTGYSITSGYYWNWIRQFPGNKLEWMGYISYDGSNNYNPSLKNRISITRDTSKNQFFLKLNSVTTEDTATYYCAGRFAYWGQGTLVTVSAAKTTAPSVYPLAPVCGDTTGSSVTLGCLVKGYFPEPVTLTWNSGSLSSGVHTFPAVLQSDLYTLSSSVTVTSSTWPSQSITCNVAHPASSTKVDKKIEPRGPTIKPCPPCKCPAPNLLGGPSVFIFPPKIKDVLMISLSPIVTCVVVDVSEDDPDVQISWFVNNVEVHTAQTQTHREDYNSTLRVVSALPIQHQDWMSGKEFKCKVNNKDLPAPIERTISKPKGSVRAPQVYVLPPPEEEMTKKQVTLTCMVTDFMPEDIYVEWTNNGKTELNYKNTEPVLDSDGSYFMYSKLRVEKKNWVERNSYSCSVVHEGLHNHHTTKSFSRTPGK
light: MDMRVPAQLLGLLLLWLSGARCDVLMTQTPLSLPVSLGDQASISCRSSQSIVHSNGNTYLEWYLQKPGQSPKLLIYKVSNRFSGVPDRFSGSGSGTDFTLKINRVEAEDLGVYYCFQGSHVPWTFGGGTKLEIKADAAPTVSIFPPSSEQLTSGGASVVCFLNNFYPKDINVKWKIDGSERQNGVLNSWTDQDSKDSTYSMSSTLTLTKDEYERHNSYTCEATHKTSTSPIVKSFNRNEC
modifications: Amino acid sequence of the recombinant 7C10-C5 heavy chain; Amino acid sequence of the recombinant 7C10-C5 light chain
B2: 7C10-C5 monoclonal antibody (antibody, V domains shown)
VH: DVQLQESGPGLVKPSQSLSLTCSVTGYSITSGYYWNWIRQFPGNKLEWMGYISYDGSNNYNPSLKNRISITRDTSKNQFFLKLNSVTTEDTATYYCAGRFAYWGQGTLVTVSA
VL: DVLMTQTPLSLPVSLGDQASISCRSSQSIVHSNGNTYLEWYLQKPGQSPKLLIYKVSNRFSGVPDRFSGSGSGTDFTLKINRVEAEDLGVYYCFQGSHVPWTFGGGTKLEIK
notes: Used as hybridoma culture supernatant (ELISA, Western blot, IHC) or at 50 µg/mL (SPR); also called 7C10 X63; clone 7C10-C5

Legend:
[1] = molecular target: T1, carboxymethylated PP4c C-terminal peptide (ac-[…]-CH3) (Homo sapiens, UniProt P60510); assay: Surface plasmon resonance (Biacore T200), steady state analysis, carboxymethylated PP4c peptide; assay type: binding; settings: PP4 Me peptide, 360 sec contact time, 40 μL/min
T1 construct: The following 11-mer peptides corresponding to the carboxymethylated or non-methylated carboxy-terminus of PP2A and PP4 catalytic subunits were used as antigens
Protocol: The differential affinity of anti-carboxymethylated PP2Ac antibodies, 7C10-C5 and 2A10, to carboxymethylated PP2A catalytic subunit versus noncarboxymethylated PP2A catalytic subunit was determined by surface plasmon resonance (SPR) on a Biacore T200 (GE Healthcare) at the Core Facility Biomolecular & Cellular Analysis (University of Natural Resources and Life Sciences Vienna BOKU). The affinity of 7C10-C5 for carboxymethylated and noncarboxymethylated catalytic subunit of PP4 (PP4c), a PP2A-related phosphatase, was also determined. […] The KD of the binding of 7C10-C5 (or 2A10) to non-carboxymethylated PP2Ac or PP4c could not be determined because at the highest analyte sample concentration (5000 nM) only very weak binding signals were detected indicating KD values of at least >5000 nM or higher. […]
SPR experiments were performed with the BiacoreT200 instrument (Cytiva). […] The sensorgrams obtained were analyzed with BiacoreT200 Evaluation Software (version 3.1). […]

[2] = molecular target: α-carboxymethylated PP2Ac (Homo sapiens, UniProt P67775); assay: IHC specificity validation (NaOH treatment of slides); parameters: NaOH treatment to chemically remove the methyl group from the methylated PP2A-C; from tissue; host or cells: de-paraffinized tissue slides; settings: slides incubated in 200 mM NaOH
Protocol: Immunohistochemical staining was performed on the DAKO Autostainer (DAKO, Carpinteria, Calif.) using Envision+ or liquid streptavidin-biotin and diaminobenzadine (DAB) as the chromogen. De-paraffinized sections were labeled with mouse monoclonal antibody 7C10-C5 (1:200) overnight at 4 C. Microwave 10 mM Tris HCl, pH9 containing 1 mM EDTA epitope retrieval was used prior to staining. Appropriate negative (no primary antibody) and positive controls (pancreas) were stained in parallel with each set of slides studied. Peptide competition studies were performed using 2 peptides ([…]*) (SEQ ID NO:115) differing in the methylation status at position L (marked with a *); FIG. 13E: Peptides were incubated at ambient temperature for 60 mins at 10-1000× molar ratios before being applied to the slide. FIG. 13F: Before being stained, slides were incubated in freshly made 200 mM NaOH for 10 mins at 4° C. and then neutralized by several washes in TBST.
Stained slides were scanned using an APERIO AT2 (Leica) and the digital images imported into QuPath (Bankhead et al., 2017). TMA cores were analyzed for percentage of cells staining and intensity. In FIGS. 13E and F, higher visibility of the dark cell nuclei indicates weaker α-carboxymethylated PP2Ac staining.

[3] = molecular target: T2, C(βA)TPDYFL-CH3 peptide (carboxymethylated PP2Ac C-terminus) (Homo sapiens, UniProt P67775); assay: ELISA screening of hybridoma supernatants with C(βA)TPDYFL peptides; assay type: binding; settings: undiluted supernatants, peptides at 3 μg/ml
T2 construct: purchased PiChem GmbH (Graz, Austria)
Protocol: In parallel to the immunoblotting screening, hybridoma supernatants were tested for the presence of TPDYFL-CH3 (SEQ ID NO:1) specific IgG antibodies by ELISA. Specifically, flat-bottom Nunc-Immuno Medisorp 96-well ELISA plates (Thermo; 467320) were coated over night at 4° C. with 50 μl of either a peptide of the sequence C(βA)TPDYFL (SEQ ID NO:48) at a concentration of 3 μg/ml in 10 mM sodium phosphate buffer pH 7.0 or with a peptide of the sequence C(βA)TPDYFL-CH3 (SEQ ID NO:48) at a concentration of 3 μg/ml in 10 mM sodium phosphate buffer pH 7.0. The wells were washed once with PBS, blocked with 180 μl of 2% bovine serum albumin (Sigma, A9647) in PBS for 1 hour at RT and washed again once with PBS. […] Bound antibodies were detected colorimetrically by addition of 50 μl of 33 μg/ml […] (TMB) (Sigma, T2885) in 0.1 M sodium acetate pH 6.0 and 0.01% H2O2 (Sigma, H1009). The colorimetric reaction was stopped after 28 min by addition of 50 μl 0.5 M H2SO4, and absorbance was measured at 450 nm with a Perkin Elmer Wallac Victor 2 1420 Multilabel Counter.

α-carboxymethylated PP2Ac, sequence (P67775 whole entry): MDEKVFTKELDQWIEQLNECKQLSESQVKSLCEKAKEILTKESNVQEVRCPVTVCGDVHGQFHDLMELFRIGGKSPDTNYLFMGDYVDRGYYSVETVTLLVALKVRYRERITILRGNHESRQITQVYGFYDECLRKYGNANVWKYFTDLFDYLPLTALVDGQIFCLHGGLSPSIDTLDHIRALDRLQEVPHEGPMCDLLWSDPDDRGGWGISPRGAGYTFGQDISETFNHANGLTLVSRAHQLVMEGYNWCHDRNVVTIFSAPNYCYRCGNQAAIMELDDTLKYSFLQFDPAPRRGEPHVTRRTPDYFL

Row | Molecule | Rmax [1] | IHC staining after chemical removal of the methyl group [2] | detection of carboxymethylated versus non-carboxymethylated peptide [3]
1 | B1 | 20.17 RU | diminished staining upon treatment with NaOH | –
2 | B2 | – | – | detected the carboxymethylated peptide
